The sequences below were run on Escherichia coli TOP10 (assay: shrunken log2 fold change of peptide-encoding DNA abundance (4.5 h post-induction vs induction); higher = less antimicrobial activity (less host growth inhibition)). Settings: time post-induction: 4.5 h; library: site-saturation at positions 5, 18, 19, 20.
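Note: peptides expressed intracellularly from a pBAD plasmid library in pooled LB shake-flask culture, induced with 0.3% L-arabinose, DNA abundance read by NGS, three biological replicates, DESeq2 with apeglm shrinkage.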

| Sequence | shrunken log2 fold change |
| --- | --- |
| RRIRQRPPRLPRPRPRPWGDPRP | -0.138 |
| RRIRWRPPRLPRPRPRPSLAPRP | 0.428 |
| RRIRERPPRLPRPRPRPPYPPRP | -0.32 |
| RRIRSRPPRLPRPRPRPKQFPRP | 0.26 |
| RRIRIRPPRLPRPRPRPFGRPRP | -0.0138 |
| RRIRFRPPRLPRPRPRPCKKPRP | -0.000348 |
| RRIRSRPPRLPRPRPRPSEEPRP | -0.243 |
| RRIRGRPPRLPRPRPRPYQNPRP | -0.0136 |
| RRIRIRPPRLPRPRPRPTLPPRP | 0.0197 |
| RRIRNRPPRLPRPRPRPNEMPRP | -0.00174 |
| RRIRKRPPRLPRPRPRPQSLPRP | -0.017 |
| RRIRRRPPRLPRPRPRPFRIPRP | 0.101 |
| RRIRNRPPRLPRPRPRPYDEPRP | -0.0237 |
| RRIRMRPPRLPRPRPRPTKPPRP | 0.0618 |
| RRIRTRPPRLPRPRPRPCTMPRP | -0.0721 |
| RRIRGRPPRLPRPRPRPQPDPRP | 0.821 |
| RRIRERPPRLPRPRPRPQQFPRP | -0.0731 |
| RRIRCRPPRLPRPRPRPNEDPRP | 0.0261 |
| RRIRGRPPRLPRPRPRPRGRPRP | 1.52 |
| RRIRNRPPRLPRPRPRPWYWPRP | -0.109 |
| RRIRQRPPRLPRPRPRPKPAPRP | 0.357 |
| RRIRNRPPRLPRPRPRPMKKPRP | 0.00302 |
| RRIRYRPPRLPRPRPRPAADPRP | -0.0866 |
| RRIRKRPPRLPRPRPRPYLYPRP | -0.404 |
| RRIRMRPPRLPRPRPRPFTPPRP | -0.397 |

| Sequence | shrunken log2 fold change |
| --- | --- |
| RRIRRRPPRLPRPRPRPTNPPRP | 0.122 |
| RRIRNRPPRLPRPRPRPLAFPRP | 0.0414 |
| RRIRNRPPRLPRPRPRPHENPRP | -0.164 |
| RRIRTRPPRLPRPRPRPAEYPRP | -0.162 |
| RRIRGRPPRLPRPRPRPKENPRP | 0.791 |
| RRIRMRPPRLPRPRPRPPWIPRP | 0.248 |
| RRIRNRPPRLPRPRPRPDWSPRP | -0.256 |
| RRIRGRPPRLPRPRPRPIAPPRP | 1.29 |
| RRIRWRPPRLPRPRPRPEMLPRP | 1.17 |
| RRIRMRPPRLPRPRPRPSPAPRP | 1.83 |
| RRIRNRPPRLPRPRPRPMPDPRP | 0.259 |
| RRIRLRPPRLPRPRPRPHQYPRP | -0.297 |
| RRIRARPPRLPRPRPRPVDVPRP | -0.113 |
| RRIRVRPPRLPRPRPRPIWLPRP | -0.106 |
| RRIRWRPPRLPRPRPRPFYSPRP | -0.681 |
| RRIRQRPPRLPRPRPRPCNWPRP | 0.0183 |
| RRIRCRPPRLPRPRPRPVNHPRP | -0.444 |
| RRIRHRPPRLPRPRPRPAREPRP | 0.256 |
| RRIRCRPPRLPRPRPRPAGTPRP | -0.202 |
| RRIRQRPPRLPRPRPRPIVNPRP | -0.0197 |
| RRIRFRPPRLPRPRPRPRAKPRP | 0.189 |
| RRIRQRPPRLPRPRPRPSHCPRP | 0.0811 |
| RRIRHRPPRLPRPRPRPKFDPRP | -0.336 |
| RRIRTRPPRLPRPRPRPPHSPRP | -0.141 |
| RRIRPRPPRLPRPRPRPYDEPRP | -0.0606 |

| Sequence | shrunken log2 fold change |
| --- | --- |
| RRIRVRPPRLPRPRPRPDMYPRP | -0.0946 |
| RRIRARPPRLPRPRPRPDEPPRP | 0.0489 |
| RRIRIRPPRLPRPRPRPFDNPRP | -1.1 |
| RRIRRRPPRLPRPRPRPEGVPRP | 0.874 |
| RRIRTRPPRLPRPRPRPSCTPRP | -0.643 |
| RRIRVRPPRLPRPRPRPITYPRP | -0.911 |
| RRIRWRPPRLPRPRPRPQRGPRP | 0.115 |
| RRIRGRPPRLPRPRPRPKMIPRP | 0.425 |
| RRIRGRPPRLPRPRPRPWQTPRP | 0.174 |
| RRIRQRPPRLPRPRPRPEHEPRP | 0.0155 |
| RRIRRRPPRLPRPRPRPAIEPRP | 0.109 |
| RRIRSRPPRLPRPRPRPGNGPRP | -0.0508 |
| RRIRTRPPRLPRPRPRPKDQPRP | -0.0284 |
| RRIRCRPPRLPRPRPRPPKKPRP | 0.132 |
| RRIRHRPPRLPRPRPRPRASPRP | 0.286 |
| RRIRQRPPRLPRPRPRPSFLPRP | -0.355 |
| RRIRLRPPRLPRPRPRPDPQPRP | -0.00554 |
| RRIRWRPPRLPRPRPRPRTWPRP | 0.292 |
| RRIRNRPPRLPRPRPRPYQAPRP | 0.036 |
| RRIRTRPPRLPRPRPRPCQAPRP | -0.0455 |
| RRIRVRPPRLPRPRPRPDCWPRP | 0.135 |
| RRIRERPPRLPRPRPRPLDSPRP | -0.344 |
| RRIRCRPPRLPRPRPRPVQMPRP | 0.239 |
| RRIRERPPRLPRPRPRPPFQPRP | 0.016 |
| RRIRVRPPRLPRPRPRPHEGPRP | -0.0348 |

| Sequence | shrunken log2 fold change |
| --- | --- |
| RRIRGRPPRLPRPRPRPGVSPRP | 0.889 |
| RRIRERPPRLPRPRPRPAWKPRP | -0.0447 |
| RRIRIRPPRLPRPRPRPMMKPRP | -0.166 |
| RRIRNRPPRLPRPRPRPCCAPRP | -0.0874 |
| RRIRHRPPRLPRPRPRPATHPRP | -0.105 |
| RRIRQRPPRLPRPRPRPMLGPRP | 0.0371 |
| RRIRPRPPRLPRPRPRPHLLPRP | -0.0988 |
| RRIRERPPRLPRPRPRPSLKPRP | -0.217 |
| RRIRLRPPRLPRPRPRPRWLPRP | 0.398 |
| RRIRFRPPRLPRPRPRPHYRPRP | -0.206 |
| RRIRKRPPRLPRPRPRPARMPRP | 0.905 |
| RRIRNRPPRLPRPRPRPSYYPRP | -0.877 |
| RRIRERPPRLPRPRPRPHDEPRP | 0.00178 |
| RRIRNRPPRLPRPRPRPWIWPRP | -0.151 |
| RRIRARPPRLPRPRPRPQQLPRP | 0.176 |
| RRIRDRPPRLPRPRPRPRRKPRP | 0.233 |
| RRIRVRPPRLPRPRPRPCPNPRP | -0.245 |
| RRIRPRPPRLPRPRPRPCFCPRP | 0.299 |
| RRIRERPPRLPRPRPRPGCCPRP | 0.131 |
| RRIRNRPPRLPRPRPRPPNFPRP | -0.0236 |
| RRIRERPPRLPRPRPRPHFCPRP | -0.117 |
| RRIRPRPPRLPRPRPRPDFLPRP | -0.235 |
| RRIRVRPPRLPRPRPRPIDFPRP | -0.0311 |
| RRIRFRPPRLPRPRPRPRCAPRP | 0.178 |
| RRIRFRPPRLPRPRPRPIGMPRP | -0.0266 |

| Sequence | shrunken log2 fold change |
| --- | --- |
| RRIRRRPPRLPRPRPRPINKPRP | -0.431 |
| RRIRPRPPRLPRPRPRPSLAPRP | 0.185 |
| RRIRIRPPRLPRPRPRPPMHPRP | -0.0688 |
| RRIRTRPPRLPRPRPRPRMVPRP | 0.0186 |
| RRIRQRPPRLPRPRPRPEKRPRP | 0.00771 |
| RRIRVRPPRLPRPRPRPPFAPRP | 0.583 |
| RRIRKRPPRLPRPRPRPIVFPRP | -0.0542 |
| RRIRGRPPRLPRPRPRPACCPRP | 0.875 |
| RRIRQRPPRLPRPRPRPGAHPRP | 0.179 |
| RRIRIRPPRLPRPRPRPAVPPRP | -0.181 |
| RRIRERPPRLPRPRPRPTDMPRP | -0.375 |
| RRIRERPPRLPRPRPRPVDLPRP | -0.103 |
| RRIRHRPPRLPRPRPRPLKIPRP | -0.0842 |
| RRIRNRPPRLPRPRPRPQCEPRP | 0.0399 |
| RRIRQRPPRLPRPRPRPKILPRP | -0.0155 |
| RRIRYRPPRLPRPRPRPMCLPRP | -0.0113 |
| RRIRWRPPRLPRPRPRPKNNPRP | -0.136 |
| RRIRWRPPRLPRPRPRPCAVPRP | 0.198 |
| RRIRTRPPRLPRPRPRPWNAPRP | -0.00214 |
| RRIRWRPPRLPRPRPRPDGAPRP | 0.227 |
| RRIRGRPPRLPRPRPRPAIVPRP | 0.0899 |
| RRIRGRPPRLPRPRPRPIVVPRP | 0.962 |
| RRIRNRPPRLPRPRPRPRCMPRP | -0.5 |
| RRIRDRPPRLPRPRPRPHRAPRP | -0.0299 |
| RRIRHRPPRLPRPRPRPGDWPRP | -0.133 |

| Sequence | shrunken log2 fold change |
| --- | --- |
| RRIRVRPPRLPRPRPRPEGQPRP | 0.197 |
| RRIRERPPRLPRPRPRPHNHPRP | -0.734 |
| RRIRQRPPRLPRPRPRPWLKPRP | 0.0706 |
| RRIRERPPRLPRPRPRPEMPPRP | 0.112 |
| RRIRSRPPRLPRPRPRPYQQPRP | -2.39 |
| RRIRSRPPRLPRPRPRPPPNPRP | 0.707 |
| RRIRERPPRLPRPRPRPVDKPRP | -0.0448 |
| RRIRARPPRLPRPRPRPYACPRP | -0.217 |
| RRIRYRPPRLPRPRPRPTWNPRP | -0.424 |
| RRIRMRPPRLPRPRPRPFQCPRP | -0.153 |
| RRIRNRPPRLPRPRPRPRKEPRP | -0.0425 |
| RRIRTRPPRLPRPRPRPWWRPRP | -0.00919 |
| RRIRTRPPRLPRPRPRPFFLPRP | -0.299 |
| RRIRLRPPRLPRPRPRPRNGPRP | -0.0949 |
| RRIRVRPPRLPRPRPRPGFAPRP | 0.299 |
| RRIRERPPRLPRPRPRPYCCPRP | -0.899 |
| RRIRMRPPRLPRPRPRPCIYPRP | 0.0933 |
| RRIRLRPPRLPRPRPRPCENPRP | 0.00489 |
| RRIRVRPPRLPRPRPRPCEDPRP | -0.0254 |
| RRIRFRPPRLPRPRPRPECMPRP | 0.0416 |
| RRIRWRPPRLPRPRPRPGANPRP | 0.0566 |
| RRIRTRPPRLPRPRPRPNIGPRP | -0.0888 |
| RRIRARPPRLPRPRPRPKVPPRP | 0.412 |
| RRIRLRPPRLPRPRPRPCMRPRP | 0.188 |
| RRIRDRPPRLPRPRPRPCCRPRP | -0.197 |
